# System: Escherichia coli TOP10
# Test: shrunken log2 fold change of peptide-encoding DNA abundance (4.5 h post-induction vs induction); higher = less antimicrobial activity (less host growth inhibition)
# Conditions: time post-induction: 4.5 h; library: site-saturation at positions 5, 18, 19, 20
# 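Note: peptides expressed intracellularly from a pBAD plasmid library in pooled LB shake-flask culture, induced with 0.3% L-arabinose, DNA abundance read by NGS, three biological replicates, DESeq2 with apeglm shrinkage.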
row,Sequence,shrunken log2 fold change
1,RRIRSRPPRLPRPRPRPHCLPRP,-0.0826
2,RRIRSRPPRLPRPRPRPHCTPRP,-0.298
3,RRIRSRPPRLPRPRPRPHDWPRP,-0.323
4,RRIRSRPPRLPRPRPRPHECPRP,-0.0285
5,RRIRSRPPRLPRPRPRPHENPRP,0.0415
6,RRIRSRPPRLPRPRPRPHEVPRP,-0.0564
7,RRIRSRPPRLPRPRPRPHFFPRP,-0.0717
8,RRIRSRPPRLPRPRPRPHHEPRP,-0.0237
9,RRIRSRPPRLPRPRPRPHHFPRP,0.0761
10,RRIRSRPPRLPRPRPRPHHNPRP,-0.708
11,RRIRSRPPRLPRPRPRPHLCPRP,-0.121
12,RRIRSRPPRLPRPRPRPHLSPRP,-0.0791
13,RRIRSRPPRLPRPRPRPHMMPRP,-0.113
14,RRIRSRPPRLPRPRPRPHNQPRP,-0.271
15,RRIRSRPPRLPRPRPRPHNSPRP,-0.357
16,RRIRSRPPRLPRPRPRPHNWPRP,-0.248
17,RRIRSRPPRLPRPRPRPHQGPRP,0.0275
18,RRIRSRPPRLPRPRPRPHQSPRP,-0.198
19,RRIRSRPPRLPRPRPRPHRPPRP,0.0831
20,RRIRSRPPRLPRPRPRPHRSPRP,-0.188
21,RRIRSRPPRLPRPRPRPHSSPRP,0.171
22,RRIRSRPPRLPRPRPRPHSYPRP,-0.171
23,RRIRSRPPRLPRPRPRPHTHPRP,-0.419
24,RRIRSRPPRLPRPRPRPHTRPRP,-0.453
25,RRIRSRPPRLPRPRPRPHWAPRP,-0.0673

row,Sequence,shrunken log2 fold change
1,RRIRSRPPRLPRPRPRPHWNPRP,-0.429
2,RRIRSRPPRLPRPRPRPIACPRP,0.12
3,RRIRSRPPRLPRPRPRPIAHPRP,-0.0401
4,RRIRSRPPRLPRPRPRPIARPRP,0.029
5,RRIRSRPPRLPRPRPRPIATPRP,0.344
6,RRIRSRPPRLPRPRPRPICQPRP,-0.00676
7,RRIRSRPPRLPRPRPRPIDDPRP,-0.00277
8,RRIRSRPPRLPRPRPRPIDVPRP,-0.0081
9,RRIRSRPPRLPRPRPRPIERPRP,-0.23
10,RRIRSRPPRLPRPRPRPIGDPRP,0.0153
11,RRIRSRPPRLPRPRPRPIGQPRP,0.0342
12,RRIRSRPPRLPRPRPRPIGVPRP,0.049
13,RRIRSRPPRLPRPRPRPIHEPRP,-0.00691
14,RRIRSRPPRLPRPRPRPIHPPRP,-0.0819
15,RRIRSRPPRLPRPRPRPIIHPRP,-0.526
16,RRIRSRPPRLPRPRPRPIKGPRP,-0.00753
17,RRIRSRPPRLPRPRPRPIKVPRP,-0.181
18,RRIRSRPPRLPRPRPRPIMLPRP,-0.156
19,RRIRSRPPRLPRPRPRPIMMPRP,-0.0828
20,RRIRSRPPRLPRPRPRPINLPRP,-0.00701
21,RRIRSRPPRLPRPRPRPIRAPRP,0.106
22,RRIRSRPPRLPRPRPRPIRDPRP,0.156
23,RRIRSRPPRLPRPRPRPIRKPRP,0.143
24,RRIRSRPPRLPRPRPRPITCPRP,-0.286
25,RRIRSRPPRLPRPRPRPITLPRP,-0.333

row,Sequence,shrunken log2 fold change
1,RRIRSRPPRLPRPRPRPITMPRP,-0.639
2,RRIRSRPPRLPRPRPRPIVGPRP,0.0247
3,RRIRSRPPRLPRPRPRPIWYPRP,-0.373
4,RRIRSRPPRLPRPRPRPIYIPRP,-0.776
5,RRIRSRPPRLPRPRPRPIYKPRP,-0.243
6,RRIRSRPPRLPRPRPRPIYTPRP,-0.548
7,RRIRSRPPRLPRPRPRPKAEPRP,0.213
8,RRIRSRPPRLPRPRPRPKATPRP,0.7
9,RRIRSRPPRLPRPRPRPKDMPRP,-0.123
10,RRIRSRPPRLPRPRPRPKDVPRP,-0.162
11,RRIRSRPPRLPRPRPRPKGVPRP,0.0137
12,RRIRSRPPRLPRPRPRPKGYPRP,0.00982
13,RRIRSRPPRLPRPRPRPKIKPRP,-0.346
14,RRIRSRPPRLPRPRPRPKKEPRP,0.00678
15,RRIRSRPPRLPRPRPRPKKFPRP,-0.222
16,RRIRSRPPRLPRPRPRPKKGPRP,0.0379
17,RRIRSRPPRLPRPRPRPKKHPRP,-0.0966
18,RRIRSRPPRLPRPRPRPKKQPRP,0.0417
19,RRIRSRPPRLPRPRPRPKKSPRP,-0.0117
20,RRIRSRPPRLPRPRPRPKLLPRP,0.325
21,RRIRSRPPRLPRPRPRPKPEPRP,-0.01
22,RRIRSRPPRLPRPRPRPKRNPRP,0.228
23,RRIRSRPPRLPRPRPRPKSHPRP,-0.158
24,RRIRSRPPRLPRPRPRPKSTPRP,-0.556
25,RRIRSRPPRLPRPRPRPKTDPRP,0.124

row,Sequence,shrunken log2 fold change
1,RRIRSRPPRLPRPRPRPKTYPRP,-0.543
2,RRIRSRPPRLPRPRPRPKVGPRP,0.176
3,RRIRSRPPRLPRPRPRPKVHPRP,-0.231
4,RRIRSRPPRLPRPRPRPKYKPRP,-0.422
5,RRIRSRPPRLPRPRPRPLAQPRP,0.261
6,RRIRSRPPRLPRPRPRPLCYPRP,-0.535
7,RRIRSRPPRLPRPRPRPLDHPRP,0.0458
8,RRIRSRPPRLPRPRPRPLDMPRP,0.0557
9,RRIRSRPPRLPRPRPRPLEHPRP,0.0173
10,RRIRSRPPRLPRPRPRPLESPRP,0.14
11,RRIRSRPPRLPRPRPRPLFEPRP,-0.0159
12,RRIRSRPPRLPRPRPRPLGCPRP,0.285
13,RRIRSRPPRLPRPRPRPLGDPRP,0.0783
14,RRIRSRPPRLPRPRPRPLHKPRP,0.104
15,RRIRSRPPRLPRPRPRPLIPPRP,-0.324
16,RRIRSRPPRLPRPRPRPLKQPRP,-0.0432
17,RRIRSRPPRLPRPRPRPLMPPRP,0.121
18,RRIRSRPPRLPRPRPRPLNMPRP,-0.316
19,RRIRSRPPRLPRPRPRPLPFPRP,-0.588
20,RRIRSRPPRLPRPRPRPLQFPRP,0.0849
21,RRIRSRPPRLPRPRPRPLQSPRP,0.49
22,RRIRSRPPRLPRPRPRPLRGPRP,0.897
23,RRIRSRPPRLPRPRPRPLSFPRP,-0.24
24,RRIRSRPPRLPRPRPRPLSSPRP,-0.329
25,RRIRSRPPRLPRPRPRPLYHPRP,-0.599

row,Sequence,shrunken log2 fold change
1,RRIRSRPPRLPRPRPRPMAKPRP,0.206
2,RRIRSRPPRLPRPRPRPMCMPRP,-0.000628
3,RRIRSRPPRLPRPRPRPMEYPRP,-0.00133
4,RRIRSRPPRLPRPRPRPMFHPRP,-0.438
5,RRIRSRPPRLPRPRPRPMFTPRP,-0.374
6,RRIRSRPPRLPRPRPRPMHSPRP,-0.055
7,RRIRSRPPRLPRPRPRPMHYPRP,-0.224
8,RRIRSRPPRLPRPRPRPMIPPRP,-0.109
9,RRIRSRPPRLPRPRPRPMKLPRP,-0.0255
10,RRIRSRPPRLPRPRPRPMKTPRP,0.0178
11,RRIRSRPPRLPRPRPRPMNDPRP,-0.075
12,RRIRSRPPRLPRPRPRPMNEPRP,-0.457
13,RRIRSRPPRLPRPRPRPMNWPRP,-0.0283
14,RRIRSRPPRLPRPRPRPMQCPRP,-0.0018
15,RRIRSRPPRLPRPRPRPMQMPRP,0.512
16,RRIRSRPPRLPRPRPRPMRIPRP,0.0732
17,RRIRSRPPRLPRPRPRPMSDPRP,-0.195
18,RRIRSRPPRLPRPRPRPMSMPRP,-0.293
19,RRIRSRPPRLPRPRPRPMSTPRP,-0.13
20,RRIRSRPPRLPRPRPRPMTLPRP,-0.103
21,RRIRSRPPRLPRPRPRPMWIPRP,-0.0694
22,RRIRSRPPRLPRPRPRPMWNPRP,-0.204
23,RRIRSRPPRLPRPRPRPMYFPRP,-0.229
24,RRIRSRPPRLPRPRPRPNAAPRP,0.675
25,RRIRSRPPRLPRPRPRPNAVPRP,-0.205

row,Sequence,shrunken log2 fold change
1,RRIRSRPPRLPRPRPRPNCHPRP,-0.316
2,RRIRSRPPRLPRPRPRPNCPPRP,-0.374
3,RRIRSRPPRLPRPRPRPNDEPRP,-0.276
4,RRIRSRPPRLPRPRPRPNDLPRP,-0.23
5,RRIRSRPPRLPRPRPRPNDYPRP,-1.18
6,RRIRSRPPRLPRPRPRPNEEPRP,0.0709
7,RRIRSRPPRLPRPRPRPNEGPRP,-0.0691
8,RRIRSRPPRLPRPRPRPNERPRP,-0.395
9,RRIRSRPPRLPRPRPRPNEYPRP,-1.02
10,RRIRSRPPRLPRPRPRPNFCPRP,0.0353
11,RRIRSRPPRLPRPRPRPNFLPRP,-0.304
12,RRIRSRPPRLPRPRPRPNGCPRP,-0.0491
13,RRIRSRPPRLPRPRPRPNHIPRP,-0.651
14,RRIRSRPPRLPRPRPRPNHYPRP,-0.789
15,RRIRSRPPRLPRPRPRPNILPRP,-0.61
16,RRIRSRPPRLPRPRPRPNKFPRP,-0.36
17,RRIRSRPPRLPRPRPRPNKKPRP,-0.194
18,RRIRSRPPRLPRPRPRPNLMPRP,-0.177
19,RRIRSRPPRLPRPRPRPNNYPRP,-0.597
20,RRIRSRPPRLPRPRPRPNPKPRP,0.0189
21,RRIRSRPPRLPRPRPRPNPTPRP,0.017
22,RRIRSRPPRLPRPRPRPNPVPRP,-0.0484
23,RRIRSRPPRLPRPRPRPNRKPRP,-0.596
24,RRIRSRPPRLPRPRPRPNSFPRP,-0.63
25,RRIRSRPPRLPRPRPRPNTDPRP,-0.442
